# Entries after “also recorded” stand apart in the source; their conditions may differ. Where no end group is shown, it is not given here.
# Key:
# [1] = target: T1, KDR/Flk-1 on PAE-KDR cells (Homo sapiens, UniProt P35968); assay: Inhibition of 125I-VEGF165 binding to PAE-KDR cells; design: species or system porcine endothelial cells transfected to express KDR/Flk-1; details: 125I-VEGF165 5 ng/ml, FIG. 3C
# T1 construct: expressed in transfected cells; host or cells: porcine endothelial cells (PAE), gift of Dr. Claesson-Welsh
# Protocol: FIGS. 3A-3C. Inhibition of ^125I-VEGF165 binding to HUVEC, MDA MB 231 cells, and PAE-KDR cells by GST-EX 7+8. ^125I-VEGF165 (5 ng,/ml) was bound to subconfluent cultures of HUVEC (3A), MDA MB 23 1 cells (3B), and PAE-KDR cells (3C) in 48-well dishes in the presence of increasing amounts of GST-Ex 7+8 (closed 20 square) or control GST protein (open squares). At the end of a 2-h incubation, the cells were washed and lysed, and the cell-associated radioactivity was determined with a γ-counter. The counts obtained are expressed as the percentage of the counts obtained in the presence of PBS without addition of GST or fusion protein.
# Human umbilical vein endothelial cells (HUVEC) were obtained from the American Type Culture Collection (ATCC) (Rockville, Md.) and grown on gelatin-coated dishes in M-199 medium containing 20% fetal calf serum (FCS) and a mixture of glutamine, penicillin, and streptomycin (GPS). Basic FGF (1 nglml) was added to the culture medium every other day. Porcine endothelial cells (PAE), parental and transfected to express KDRElk-1 (PAE-KDR), were kindly provided by Dr. Lema Claesson-Welsh and grown in F12 medium containing 10% FCS and GPS as described (Waltenberger, et al., J. Biol. Chem., 269,26988-26995 (1994)). MDAMB-231 (231) cells were obtained from ATCC and grown in Bulbecoo's modified Eagle's medium containing 10% FCS and GPS.
# (§1) Binding and cross-linking experiments using 125I-VEGF165 and 125I-VEGF121 were performed at described previously (Gitay-Goren, et al., J. Biol. Chem., 287, 6003-6096 (1992), Soker, et al., J: Biol. Chem., 271,5761-5767 (1996)). VEGF binding was quantified by measuring the cell-associated radioactivity in a y-counter (Beckman, Gamma 5500). The counts represent the average of three walls. All experiments were repeated at least three times, and similar results were obtained. 125I-VEGF cross-linked complexes were resolved by 6% SDS-PAGE, and the gels were exposed to a phosphor screen and scanned after 24 h by a PhosphorImager (Molecular Dynamics). Subsequently, the gels were exposed to x-ray film.
# KDR/Flk-1 [2] = assay: Cross-linking of 125I-VEGF165 to KDR/Flk-1 on HUVEC; type: binding, human; details: 15 ug/ml fusion protein, FIG. 4
# Protocol: (§2) FIG. 4. GST-EX 7+8 fusion protein inhibits cross-linking of ^125I-VEGF165 to ^125I-VEGF165R and to KDR/Flk-1. ^125I-VEGF165 (5 ng/ml) was bound to subconfluent cultures of HUVEC (lanes 1 and 2) and MDA-MB-23 1 cells (lanes 3 and 4) in 6-cm dishes. The binding was carried out in the presence (lanes 2 and 4) or the absence (lanes 1 and 3) of 15 ug/ml GST-Ex 7+8. Heparin (1 ug/ml) was added to each dish. At the end of a 2-h incubation, ^125I-VEGF165 was chemically cross-linked to the cell surface. The cells were lysed, and proteins were resolved by 6% SDS-PAGE. The gel was dried and exposed to x-ray film.
# as §1
# KDR/Flk-1 [3] = assay: Cross-linking of 125I-VEGF121 to KDR/Flk-1 of HUVEC; type: binding, human; details: 15 ug/ml fusion protein, FIG. 8 lane 2
# Protocol: FIG. 8. GST-Ex 7+8 fusion protein inhibits cross-linking of ^125I-VEGF121 to KDR/Flk-1 of HUVEC ^125I-VEGF121 (2˜0 ng/ml) was bound to subconfluent cultures of HUVEC in 6-cm dishes. The binding was carried out in the presence (lane 2) or the absence (lane 1) of 15 ug/ml GST-Ex 7+8. Heparin (1 ug/ml) was added to each dish. At the end of a 2-h incubation, ^125I-VEGF was chemically cross-linked to the cell surface. The cells were lysed, and proteins were resolved by 6% SDS-PAGE. The gel was dried and exposed to x-ray film.
# as §1
# VEGF165R [4] = target: T2, VEGF165R (Homo sapiens, UniProt O14786); assay: Cross-linking of 125I-VEGF165 to VEGF165R on 231 cells; type: binding; design: to 231 cells which express only VEGF165R; endogenous in cells; host or cells: MDA-MB-231 (ATCC); details: 15 ug/ml fusion protein, FIG. 4 lane 4
# Protocol: as §2, §1
# VEGF165R [5] = target: T2, VEGF165R; assay: Direct binding/cross-linking of 125I-GST-Ex 7 to HUVEC: VEGF165R; design: HUVEC, which express both KDR/Flk-1 and VEGF165R; endogenous in cells; host or cells: HUVEC (ATCC); details: cross-linking, 1 ug/ml heparin, FIG. 1 lane 3
# Protocol: FIG. 1. Cross-linking of 1 ^125I-VEGF165, ^125I-VEGF121 and ^125I-GST-EX 7 to HUVEC. ^125I-VEGF165 (5 ng/ml) (lane 1) or ^125I-VEGF121 (10 ng/ml) (lane 2) or ^125I-GST-EX 7 (50 nglml) (lane 3) were bound to subconfluent cultures of HUVEC in 6-cm dishes. The binding was carried out in the presence of 1 ug/ml heparin. At the end of a 2-H incubation, each ^125I-VEGF isoform was chemically cross-linked to the cell surface. The cells were lysed and proteins were resolved by 6% SDS-PAGE. The polyacrylamide gel was dried and exposed to x-ray film.
# as §1
# VEGF165R [6] = target: T2, VEGF165R; assay: Cross-linking of 125I-VEGF165 to VEGF165R on HUVEC; type: binding; design: HUVEC, which express both KDR/Flk-1 and VEGF165R; endogenous in cells; host or cells: HUVEC (ATCC); details: 15 ug/ml fusion protein, FIG. 4 lane 2
# Protocol: as §2, §1
# KDR/Flk-1 [7] = target: KDR/Flk-1 (Homo sapiens, UniProt P35968); assay: Cross-linking of 125I-VEGF165 to KDR/Flk-1 on PAE-KDR cells; type: binding, porcine endothelial cells transfected to express KDR/Flk-1; design: expressed in transfected cells; host or cells: porcine endothelial cells (PAE), gift of Dr. Claesson-Welsh; details: data not shown
# Protocol: as §1
# T2 sequence (O14786 22-923): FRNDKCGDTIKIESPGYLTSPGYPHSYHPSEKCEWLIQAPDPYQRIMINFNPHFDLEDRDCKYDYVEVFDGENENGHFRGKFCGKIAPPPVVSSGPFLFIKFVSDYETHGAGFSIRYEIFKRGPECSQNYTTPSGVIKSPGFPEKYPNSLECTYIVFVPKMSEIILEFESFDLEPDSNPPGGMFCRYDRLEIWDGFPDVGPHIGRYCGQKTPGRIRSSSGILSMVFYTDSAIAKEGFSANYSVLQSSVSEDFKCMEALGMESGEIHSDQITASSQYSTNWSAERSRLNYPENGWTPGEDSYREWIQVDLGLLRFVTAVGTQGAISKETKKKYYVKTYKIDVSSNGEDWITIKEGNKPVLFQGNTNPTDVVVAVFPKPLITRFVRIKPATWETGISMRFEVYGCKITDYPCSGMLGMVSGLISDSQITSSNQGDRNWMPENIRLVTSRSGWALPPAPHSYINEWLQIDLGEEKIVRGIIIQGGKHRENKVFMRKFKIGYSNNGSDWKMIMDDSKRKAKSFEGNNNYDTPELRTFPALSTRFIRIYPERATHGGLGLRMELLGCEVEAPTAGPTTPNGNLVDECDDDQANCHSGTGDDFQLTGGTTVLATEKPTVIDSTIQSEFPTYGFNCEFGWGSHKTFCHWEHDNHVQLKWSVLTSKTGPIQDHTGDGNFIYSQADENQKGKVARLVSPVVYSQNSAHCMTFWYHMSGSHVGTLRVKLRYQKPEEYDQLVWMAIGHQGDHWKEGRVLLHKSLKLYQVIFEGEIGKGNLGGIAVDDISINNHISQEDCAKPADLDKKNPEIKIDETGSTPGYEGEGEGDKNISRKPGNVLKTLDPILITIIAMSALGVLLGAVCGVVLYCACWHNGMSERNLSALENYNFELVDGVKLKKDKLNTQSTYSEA
# Chain of KDR/Flk-1 (Homo sapiens, UniProt P35968) (P35968 20-1356): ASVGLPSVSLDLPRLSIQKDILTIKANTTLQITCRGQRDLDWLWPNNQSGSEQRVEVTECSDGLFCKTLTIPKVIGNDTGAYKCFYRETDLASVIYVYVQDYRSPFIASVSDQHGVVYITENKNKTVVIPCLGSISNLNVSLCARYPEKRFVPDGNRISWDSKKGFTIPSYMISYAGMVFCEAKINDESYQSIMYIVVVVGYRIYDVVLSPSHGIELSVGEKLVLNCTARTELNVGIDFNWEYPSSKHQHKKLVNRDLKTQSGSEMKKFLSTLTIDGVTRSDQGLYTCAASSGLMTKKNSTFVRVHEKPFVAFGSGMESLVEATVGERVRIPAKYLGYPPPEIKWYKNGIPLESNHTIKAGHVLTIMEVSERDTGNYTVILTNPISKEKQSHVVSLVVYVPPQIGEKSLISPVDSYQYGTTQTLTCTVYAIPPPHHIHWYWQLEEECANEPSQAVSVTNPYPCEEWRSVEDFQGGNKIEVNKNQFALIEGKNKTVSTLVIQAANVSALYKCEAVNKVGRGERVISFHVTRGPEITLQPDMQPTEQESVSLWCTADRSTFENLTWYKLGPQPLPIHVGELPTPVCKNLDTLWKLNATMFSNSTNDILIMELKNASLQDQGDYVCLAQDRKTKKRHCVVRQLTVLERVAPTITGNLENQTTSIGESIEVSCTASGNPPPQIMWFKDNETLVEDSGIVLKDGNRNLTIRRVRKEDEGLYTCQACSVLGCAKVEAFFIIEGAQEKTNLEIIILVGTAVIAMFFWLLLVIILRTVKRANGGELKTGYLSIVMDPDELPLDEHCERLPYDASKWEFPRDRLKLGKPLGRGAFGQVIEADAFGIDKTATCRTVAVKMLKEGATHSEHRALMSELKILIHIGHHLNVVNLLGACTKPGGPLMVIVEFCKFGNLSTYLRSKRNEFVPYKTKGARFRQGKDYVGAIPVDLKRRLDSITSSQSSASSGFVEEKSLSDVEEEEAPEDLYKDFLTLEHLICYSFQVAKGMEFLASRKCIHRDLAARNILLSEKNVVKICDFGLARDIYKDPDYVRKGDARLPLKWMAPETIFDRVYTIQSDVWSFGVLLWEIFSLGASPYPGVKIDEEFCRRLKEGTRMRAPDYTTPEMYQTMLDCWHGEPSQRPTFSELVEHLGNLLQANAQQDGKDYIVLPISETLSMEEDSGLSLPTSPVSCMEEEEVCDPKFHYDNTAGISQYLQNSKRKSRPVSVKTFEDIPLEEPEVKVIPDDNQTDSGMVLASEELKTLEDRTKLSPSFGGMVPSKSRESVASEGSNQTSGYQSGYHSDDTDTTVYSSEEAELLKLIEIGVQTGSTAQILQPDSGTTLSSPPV
# T1 sequence (P35968 20-1356): as above
substance,measurement,setting,value
"GST-Ex 7+8: GST fusion protein containing the peptide encoded by VEGF165 exons 7 and 8 (PCGPCSERRKHLFVQDPQTCKCSCKNTDSRCKARQLELNERTCRCDKPRR; cysteine pairing not given here; also: GST fusion protein, side of fusion not given here)",inhibition of 125I-VEGF165 binding to PAE-KDR cells (in words),[1],did not inhibit
same,binding/cross-linking of 125I-VEGF165 to KDR/Flk-1 on HUVEC (in words),KDR/Flk-1 [2],inhibits indirectly; also recorded: inhibited
same,formation of 240-kDa 125I-VEGF121/KDR/Flk-1 cross-linked complexes on HUVEC (in words),KDR/Flk-1 [3],significantly inhibited; also recorded: diminished binding
same,formation of 125I-VEGF165/VEGF165R cross-linked complexes on 231 cells (in words),VEGF165R [4],markedly inhibited
same,direct binding to VEGF165R on HUVEC (in words),VEGF165R [5],binds
same,formation of 165-175-kDa 125I-VEGF165/VEGF165R cross-linked complexes on HUVEC (in words),VEGF165R [6],markedly inhibited
same,cross-linking of 125I-VEGF165 to KDR/Flk-1 on PAE-KDR cells (in words),KDR/Flk-1 [7],did not inhibit
